The data set has as its target human alpha-thrombin (Homo sapiens, UniProt P00734;P00734 328-363;364-622). Put plainly: affinity chromatography (HPLC, aptamer monolith); 5 mM Mg2+, pH 8.0; eluted with 2 M NaClO4; 10 mM Tris HCl, 5 mM MgCl2 (varied 0-20 mM), pH 8.0 (varied 4-10), 0.3 mL/min, elution with 2 M NaClO4; temperature not stated.

The text below walks through data of publication PMC6787036.

B1: TBA (15-mer thrombin binding aptamer) (structured_DNA)
DNA: GGTTGGTGTGGTTGG
modifications: 5' amino-C6 (5AmMC6), covalently immobilised on poly(EDMA-co-GMA) monolith by Schiff-base (EDA/glutaraldehyde)
For B1, the binding result is listed as “binds”.
